Results published in paper PMC8965161, “Suppression of ATG4B by copper inhibits autophagy and involves in Mallory body formation” (Redox Biology, 2022).

How the values were obtained:
ATG4B^C0-GFP = ATG4B^C0-GFP (UniProt Q9Y4P1); assay: differential detergent fractionation and western blot under non-reduced condition, oligomer band quantified (self-oligomer formation in cells); set-up: reference not given here; conditions: HEK-293T cells, read off a plot
[1] = molecular target: the molecule itself; assay: non-reduced SDS-PAGE with Coomassie staining; ATG4B protein (4 ug) treated with designed concentrations of copper ions at 4 C for 30 min, stopped with 10 mM NEM; non-reduced condition

response (ATG4B^C0-GFP; Insoluble fraction, 1 mM copper ions (CuCl2) for 6 h) | response (ATG4B^C0-GFP; Insoluble fraction, no CuCl2) | response (ATG4B^C0-GFP; Soluble fraction, 1 mM copper ions (CuCl2) for 6 h) | response (ATG4B^C0-GFP; Soluble fraction, no CuCl2) | Molecule | binding result [1]
0.55 | 0.39 | 0.15 | 0.068 | ATG4B-GFP (from UniProt Q9Y4P1) C0 (all 14 cysteines to serines) | 
 |  |  |  | recombinant ATG4B protein without His-Tag (enzyme, human, UniProt Q9Y4P1 1-393, looked up, ATG4B, cysteine protease, human; source: recombinant, purified, without His-Tag) MDAATLTYDTLRFAEFEDFPETSEPVWILGRKYSIFTEKDEILSDVASRLWFTYRKNFPAIGGTGPTSDTGWGCMLRCGQMIFAQALVCRHLGRDWRWTQRKRQPDSYFSVLNAFIDRKDSYYSIHQIAQMGVGEGKSIGQWYGPNTVAQVLKKLAVFDTWSSLAVHIAMDNTVVMEEIRRLCRTSVPCAGATAFPADSDRHCNGFPAGAEVTNRPSPWRPLVLLIPLRLGLTDINEAYVETLKHCFMMPQSLGVIGGKPNSAHYFIGYVGEELIYLDPHTTQPAVEPTDGCFIPDESFHCQHPPCRMSIAELDPSIAVGFFCKTEDDFNDWCQQVKKLSLLGGALPMFELVELQPSHLACPDVLNLSLDSSDVERLERFFDSEDEDFEILSL | binds
